Assay results published in patent US20090175866A1, “TREATMENT OF B-CELL MALIGNANCIES” (priority 2004, published 2009).

Experiments:
FGFR3-F384L = target: T1, FGFR3-F384L (Homo sapiens, UniProt P22607, F384L); test: FGF-stimulated growth of B9 cells expressing FGFR3 mutant F384L; type: cell-based
T1 construct: expressed in transfected cells; host or cells: B9 cells
Experimental: (§1) Non-transformed rat chondrocyte cell line expressing PGFR3 in an inducible manner (RCJ-FGFR3) has been described previously (Rauchenberger R. et al. J. Biol. Chem. 2003; 278:38194-205). Cells were maintained in α-Minimum Essential Media supplemented with 15% fetal calf serum (FCS), 2 mM L-Glutamine, 100 U/ml penicillin, 100 μg/ml streptomycin, 600 μg/ml G418 (Gibco BRL, Ontario, Canada), 2 μg/ml Tetracyclin (Sigma, Ontario, Canada), and 50 μg/ml HygromycinB (Gibco BRL). FGFR3 expression was induced by removal of tetracyclin and serum starvation. […]
(§2) Cell viability was assessed by 3-(4,5-dimethylthiazol)-2,5-diphenyl tetrazolium (MTT) or (2,3-bis(2-methoxy-4-nitro-5-sulphophenyl)-5-[(phenylamino) carbonyl]-2H-tetrazolium hydroxide (XTT) dye absorbance where indicated. Cells were seeded in 96-well plates at a density of 20,000 (FDCP-1 cells), 5,000 (B9 cells) or 25,000 cells (MM cell lines) per well in culture medium. Cells were incubated in the absence or presence of one of the following cytokines: 10 ng/ml FGF9 and 5 μg/ml heparin, 1% murine IL-6, 50 ng/ml IGF-1 or 50 ng/ml human IL-6 where indicated and increasing concentrations of PRO-001, control antibody (purified human Fab) or 100 nM PD173074. […]

H929 cells = test: Viability of H929 myeloma cells (MTT); type: cell-based, human; conditions: 5 μg/ml
Text: FIG. 2 is a graph showing the viability of human myeloma cell lines in the presence of PRO-001. Viability is reported as the ratio between the optical density (OD) in the presence of FGF±inhibitor and the OD in the absence of FGF.
as §1, with “BRL).” for “BRL). FGFR3 expression was induced by removal of tetracyclin and serum starvation.”
as §2

KMS11 (FGFR3-Y373C) = test: Viability of KMS11 myeloma cells; type: cell-based, human; conditions: cells grow independent of FGF
Experimental: as §1, §2

BMSC = test: Direct toxicity on bone marrow stroma cells (annexin V); type: cell-based, human; conditions: 5 μg/ml, 72 hours (FIG. 5 legend)
Experimental: FIG. 5 is a graph showing apoptosis of UTMC2 cells in response to treatment with PRO-001 in the presence of BMSCs (stroma). BMSCs alone (stroma) or BMSCs together with UTMC2 cells (stroma/UTMC2) were cultured with control antibody or 5 μg/ml PRO-001 for 72 hours and apoptosis was assessed by means of a flow cytometry assay of annexin V binding and propidium iodide exclusion. Values represent means of quadruplicate cultures ±SD.
as §1
For studies of apoptosis, cells were seeded at an initial density of 2.5×10^5/ml in 6 well plates coated with BMSCs and supplemented with control (vehicle or antibody) or 5 μg/ml PRO-001 and cultured for 48 h. Apoptosis was determined by Annexin V staining (Boehringer Mannheim, Indianapolis, Ind.) and analyzed by flow cytometry. […]

T1 sequence (P22607 23-806 F384L): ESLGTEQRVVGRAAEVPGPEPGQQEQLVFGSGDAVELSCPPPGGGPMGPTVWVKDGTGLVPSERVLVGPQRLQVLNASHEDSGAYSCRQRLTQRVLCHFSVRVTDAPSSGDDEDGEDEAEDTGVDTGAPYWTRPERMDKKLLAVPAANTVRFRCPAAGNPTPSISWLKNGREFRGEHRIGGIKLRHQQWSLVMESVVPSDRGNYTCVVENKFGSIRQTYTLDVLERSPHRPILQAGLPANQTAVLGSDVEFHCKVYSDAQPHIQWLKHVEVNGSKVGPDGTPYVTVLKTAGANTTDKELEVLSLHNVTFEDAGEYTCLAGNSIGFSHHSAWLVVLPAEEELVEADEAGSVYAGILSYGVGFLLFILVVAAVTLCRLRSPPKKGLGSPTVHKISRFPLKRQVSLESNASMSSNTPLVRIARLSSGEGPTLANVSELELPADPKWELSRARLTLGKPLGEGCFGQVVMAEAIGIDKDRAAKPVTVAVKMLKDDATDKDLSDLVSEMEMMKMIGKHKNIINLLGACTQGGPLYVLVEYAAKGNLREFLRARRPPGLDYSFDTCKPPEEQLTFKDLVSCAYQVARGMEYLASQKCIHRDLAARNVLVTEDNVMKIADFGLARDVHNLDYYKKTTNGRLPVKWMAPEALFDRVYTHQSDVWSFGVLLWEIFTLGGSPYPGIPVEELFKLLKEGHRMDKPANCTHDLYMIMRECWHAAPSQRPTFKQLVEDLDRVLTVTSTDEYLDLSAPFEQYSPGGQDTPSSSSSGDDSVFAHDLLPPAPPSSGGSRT

B1: PRO-001: human anti-FGFR3 Fab from HuCAL library; VH-CDR3 SEQ ID NO:1, VL-CDR3 SEQ ID NO:10; VH SEQ ID NO:19, VL SEQ ID NO:28 (antibody, V domains shown)
VH: QVQLQQSGPGLVKPSQTLSLTCAISGDSVSSNSAAWNWIRQSPGRGLEWLGRTYYRSKWYNDYAVSVKSRITINPDTSKNQFSLQLNSVTPEDTAVYYCARSYYPDFDYWGQGTLVTVSS
VL: DIELTQPPSVSVAPGQTARISCSGDALGDKYASWYQQKPGQAPVLVIYDDSDRPSGIPERFSGSNSGNTATLTISGTQAEDEADYYCQSYDGPDLWVFGGGTKLTVLGQ
- IC50, FGF-stimulated growth of B9 cells expressing FGFR3 mutant F384L (FGFR3-F384L): approximately 3 μg/ml
- Cell growth of H929 cells in the presence of FGF (H929 cells): resistant
- Viability of KMS11 (FGFR3-Y373C) (KMS11 (FGFR3-Y373C)): failed to inhibit the viability
- Direct toxicity on the BMSC (BMSC): no direct toxicity
